{
  "source": "paper PMC3857619",
  "about": "(2013)",
  "binders": {"B1": {"name": "recombinant hnRNPA1 (protein)", "chain": "MSKSESPKEPEQLRKLFIGGLSFETTDESLRSHFEQWGTLTDCVVMRDPNTKRSRGFGFVTYATVEEVDAAMNARPHKVDGRVVEPKRAVSREDSQRPGAHLTVKKIFVGGIKEDTEEHHLRDYFEQYGKIEVIEIMTDRGSGKKRGFAFVTFDDHDSVDKIVIQKYHTVNGHNCEVRKALSKQEMASASSSQRGRSGSGNFGGGRGGGFGGNDNFGRGGNFSGRGGFGGSRGGGGYGGSGDGYNGFGNDGGYGGGGPGYSGGSRGYGSGGQGYGNQGSGYGGSGSYDSYNNGGGGGFGGGSGSNFGGGGSYNDFGNYNNQSSNFGPMKGGNFGGRSSGPYGGGGQYFAKPRNQGGYGGSSSSSSYGSGRRF"}},
  "molecular_target": "recombinant PTB (Homo sapiens (Human), UniProt P26599)",
  "sequence (P26599 whole entry)": "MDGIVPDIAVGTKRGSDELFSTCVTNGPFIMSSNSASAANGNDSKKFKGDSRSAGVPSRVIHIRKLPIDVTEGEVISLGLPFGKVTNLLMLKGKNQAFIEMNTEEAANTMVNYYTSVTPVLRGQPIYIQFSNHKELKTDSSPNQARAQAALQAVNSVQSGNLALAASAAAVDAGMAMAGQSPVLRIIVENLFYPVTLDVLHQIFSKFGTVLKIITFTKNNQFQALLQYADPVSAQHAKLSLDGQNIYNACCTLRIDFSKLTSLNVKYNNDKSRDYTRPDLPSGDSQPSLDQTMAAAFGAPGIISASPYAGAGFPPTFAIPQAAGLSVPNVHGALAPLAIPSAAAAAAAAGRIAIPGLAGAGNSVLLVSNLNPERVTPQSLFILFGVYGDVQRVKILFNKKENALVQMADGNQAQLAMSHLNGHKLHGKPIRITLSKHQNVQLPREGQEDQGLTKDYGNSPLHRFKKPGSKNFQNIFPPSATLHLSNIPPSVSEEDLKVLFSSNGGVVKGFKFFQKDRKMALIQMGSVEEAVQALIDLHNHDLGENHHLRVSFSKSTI",
  "experiment": "in vitro co-IP (anti-PTB) with western blot",
  "data": [
    {"binder": "B1", "values": [
      {"measurement": "binding result", "value": "binds"}
    ]}
  ]
}
